The test addresses T1, MTG (Streptomyces mobaraensis, UniProt P81453).
T1 construct: purchased Activa TI or Zedira
T1 sequence (P81453 77-407): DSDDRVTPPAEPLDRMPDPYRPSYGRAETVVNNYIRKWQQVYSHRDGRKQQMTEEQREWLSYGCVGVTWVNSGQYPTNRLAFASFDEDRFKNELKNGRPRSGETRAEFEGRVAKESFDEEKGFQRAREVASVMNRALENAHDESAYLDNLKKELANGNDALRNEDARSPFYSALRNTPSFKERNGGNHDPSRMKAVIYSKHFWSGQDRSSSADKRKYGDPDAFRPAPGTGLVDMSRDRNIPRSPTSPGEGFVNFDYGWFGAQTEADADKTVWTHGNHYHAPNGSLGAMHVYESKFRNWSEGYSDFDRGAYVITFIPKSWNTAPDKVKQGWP
Kind of test: MTG-catalyzed conjugation of 3-APA to mAbs, degree of labeling (DOL) by LC-MS. Format: biochemical, S. mobarensis. To be noted: different IgG backgrounds, MTG and 3-APA at 37° C., per full mAb. The procedure:
To assess the suitability of the mAb variants for MTG-catalyzed conjugation, intact mAbs (1 mg/mL) were reacted with 3-azido propylamine (3-APA; 20-100-fold molar excess) and MTG (Activa TI, 5-20% w/v or Zedira, 5-20 units/mg of mAb) in PBS buffer at 22-37° C. for 30 min to overnight. Reactions were stopped by the addition of MTG blocker (Zedira) to 100 μM and analyzed by LC-MS following deglycosylation with PNGase F and reduction with dithiothreitol. The degree of labeling (DOL) was determined by mass spectrometry.
LC-MS was performed on an Agilent 1260 HPLC system connected to an Agilent G6224 MS-TOF Mass Spectrometer. LC was run on an Agilent RP-mAb C4 column (2.1×50 mm, 3.5 micron) at a flow rate of 1 mL/min with the mobile phase 0.1% formic acid in water (A) and 0.1% formic acid in acetonitrile (Sigma-Aldrich Cat #34688) (B) and a gradient of 20% B (0-2 min), 20-60% B (2-3 min), 60-80% B (3-5.5 min). The instrument was operated in positive electro-spray ionization mode and scanned from m/z 600 to 6000. Mass to charge spectrum was deconvoluted using the Maximum Entropy algorithm and DOL was estimated using relative intensities of the deconvoluted masses corresponding to intact mAb (for intact mass) or mAb heavy chain (for reduced mass) with the addition of multiples of 83 Da (corresponding to 3-APA).
Instrument settings included: capillary voltage 3500V; fragmentor 175V; skimmer 65V; gas temperature 325C; drying gas flow 5.0 L/min; nebulizer pressure 30 psig; acquisition mode range 100-7000 with 0.42 scan rate.
Take “Panitumumab WT deglycosylated: deglycosylated WT panitumumab”: the “DOL 18 hr” value came out at 2.0.

As for Pertuzumab [Pertuzumab WT], the “DOL 18 hr” value amounted to 1.2.

For Panitumumab [Panitumumab WT], the “DOL 18 hr” value worked out at 1.2.

For “Pertuzumab WT deglycosylated: deglycosylated WT pertuzumab”, the “DOL 18 hr” value came out at 2.0.

These data come from US12227593B2, “Site-specific conjugation of glycosylated monoclonal antibodies with transglutaminase” (Janssen Biotech, Inc., priority 2020, dated 2025).
